Data: US20180051053A1

Target: Protein G (Protein G UltraLink resin, Pierce) (group G streptococci) (UniProt P19909)
Assay: depletion of 100 µg IgG by Protein G resin beads (10 µL suspension); supernatant read by SDS-PAGE band pixels

remaining antibody amount (unbound IgG left in supernatant): 3%
Substance: IgG (antibody)
